{
  "source": "paper PMC3253312",
  "about": "(Steroids, 2011)",
  "substrate": "C[C@]12CCC(=O)C=C1CC[C@@H]1[C@@H]2CC[C@]2(C)C(=O)CC[C@@H]12",
  "test": "cells, lysate or membranes",
  "conditions": "substrate",
  "data": [
    {"protein": "wild-type aromatase (Homo sapiens) (protein) MVLEMLNPIHYNITSIVPEAMPAATMPVLLLTGLFLLVWNYEGTSSIPGPGYCMGIGPLISHGRFLWMGIGSACNYYNRVYGEFMRVWISGEETLIISKSSSMFHIMKHNHYSSRFGSKLGLQCIGMHEKGIIFNNNPELWKTTRPFFMKALSGPGLVRMVTVCAESLKTHLDRLEEVTNESGYVDVLTLLRRVMLDTSNTLFLRIPLDESAIVVKIQGYFDAWQALLIKPDIFFKISWLYKKYEKSVKDLKDAIEVLIAEKRRRISTEEKLEECMDFATELILAEKRGDLTRENVNQCILEMLIAAPDTMSVSLFFMLFLIAKHPNVEEAIIKEIQTVIGERDIKIDDIQKLKVMENFIYESMRYQPVVDLVMRKALEDDVIDGYPVKKGTNIILNIGRMHRLEFFPKPNEFTLENFAKNVPYRYFQPFGFGPRGCAGKYIAMVMMKAILVTLLRRFHVKTLQGQCVESIQKIHDLSLHPDETKNMLEMIFTPRNSDRCLEH", "values": [
      {"measurement": "Km", "setting": "other: WT aromatase", "value": "27.3 ± 2.5", "unit": "nM"},
      {"measurement": "Vmax", "setting": "other: WT aromatase", "value": "5.32e-07", "unit": "µmol/min/mg"}
    ]},
    {"protein": "aromatase F221Y mutant (Homo sapiens; F221Y) (protein) MVLEMLNPIHYNITSIVPEAMPAATMPVLLLTGLFLLVWNYEGTSSIPGPGYCMGIGPLISHGRFLWMGIGSACNYYNRVYGEFMRVWISGEETLIISKSSSMFHIMKHNHYSSRFGSKLGLQCIGMHEKGIIFNNNPELWKTTRPFFMKALSGPGLVRMVTVCAESLKTHLDRLEEVTNESGYVDVLTLLRRVMLDTSNTLFLRIPLDESAIVVKIQGYYDAWQALLIKPDIFFKISWLYKKYEKSVKDLKDAIEVLIAEKRRRISTEEKLEECMDFATELILAEKRGDLTRENVNQCILEMLIAAPDTMSVSLFFMLFLIAKHPNVEEAIIKEIQTVIGERDIKIDDIQKLKVMENFIYESMRYQPVVDLVMRKALEDDVIDGYPVKKGTNIILNIGRMHRLEFFPKPNEFTLENFAKNVPYRYFQPFGFGPRGCAGKYIAMVMMKAILVTLLRRFHVKTLQGQCVESIQKIHDLSLHPDETKNMLEMIFTPRNSDRCLEH", "values": [
      {"measurement": "Km", "setting": "other: F221Y mutant", "value": "2.9 ± 0.3", "unit": "nM"},
      {"measurement": "Vmax", "setting": "other: F221Y mutant", "value": "1.22e-07", "unit": "µmol/min/mg"}
    ]},
    {"protein": "aromatase W224F mutant (Homo sapiens; W224F) (protein) MVLEMLNPIHYNITSIVPEAMPAATMPVLLLTGLFLLVWNYEGTSSIPGPGYCMGIGPLISHGRFLWMGIGSACNYYNRVYGEFMRVWISGEETLIISKSSSMFHIMKHNHYSSRFGSKLGLQCIGMHEKGIIFNNNPELWKTTRPFFMKALSGPGLVRMVTVCAESLKTHLDRLEEVTNESGYVDVLTLLRRVMLDTSNTLFLRIPLDESAIVVKIQGYFDAFQALLIKPDIFFKISWLYKKYEKSVKDLKDAIEVLIAEKRRRISTEEKLEECMDFATELILAEKRGDLTRENVNQCILEMLIAAPDTMSVSLFFMLFLIAKHPNVEEAIIKEIQTVIGERDIKIDDIQKLKVMENFIYESMRYQPVVDLVMRKALEDDVIDGYPVKKGTNIILNIGRMHRLEFFPKPNEFTLENFAKNVPYRYFQPFGFGPRGCAGKYIAMVMMKAILVTLLRRFHVKTLQGQCVESIQKIHDLSLHPDETKNMLEMIFTPRNSDRCLEH", "values": [
      {"measurement": "Km", "setting": "other: W224F mutant", "value": "67.0 ± 5.1", "unit": "nM"},
      {"measurement": "Vmax", "setting": "other: W224F mutant", "value": "1.18e-07", "unit": "µmol/min/mg"}
    ]},
    {"protein": "aromatase M374T mutant (Homo sapiens; M374T) (protein) MVLEMLNPIHYNITSIVPEAMPAATMPVLLLTGLFLLVWNYEGTSSIPGPGYCMGIGPLISHGRFLWMGIGSACNYYNRVYGEFMRVWISGEETLIISKSSSMFHIMKHNHYSSRFGSKLGLQCIGMHEKGIIFNNNPELWKTTRPFFMKALSGPGLVRMVTVCAESLKTHLDRLEEVTNESGYVDVLTLLRRVMLDTSNTLFLRIPLDESAIVVKIQGYFDAWQALLIKPDIFFKISWLYKKYEKSVKDLKDAIEVLIAEKRRRISTEEKLEECMDFATELILAEKRGDLTRENVNQCILEMLIAAPDTMSVSLFFMLFLIAKHPNVEEAIIKEIQTVIGERDIKIDDIQKLKVMENFIYESMRYQPVVDLVTRKALEDDVIDGYPVKKGTNIILNIGRMHRLEFFPKPNEFTLENFAKNVPYRYFQPFGFGPRGCAGKYIAMVMMKAILVTLLRRFHVKTLQGQCVESIQKIHDLSLHPDETKNMLEMIFTPRNSDRCLEH", "values": [
      {"measurement": "Km", "setting": "other: M374T mutant", "value": "17.8 ± 2.0", "unit": "nM"},
      {"measurement": "Vmax", "setting": "other: M374T mutant", "value": "4.5e-08", "unit": "µmol/min/mg"}
    ]}
  ]
}
